This note sets out measurements from patent US20260275312, “CRISPR NUCLEASE POLYPEPTIDES AND GENE EDITING SYSTEMS COMPRISING SUCH” (ARBOR BIOTECHNOLOGIES, INC., published 2026).

The target of data set [1] is T1, Nuclease S H280R/T72R/I845R (synthetic construct, H280R,T72R,I845R).
T1 chain: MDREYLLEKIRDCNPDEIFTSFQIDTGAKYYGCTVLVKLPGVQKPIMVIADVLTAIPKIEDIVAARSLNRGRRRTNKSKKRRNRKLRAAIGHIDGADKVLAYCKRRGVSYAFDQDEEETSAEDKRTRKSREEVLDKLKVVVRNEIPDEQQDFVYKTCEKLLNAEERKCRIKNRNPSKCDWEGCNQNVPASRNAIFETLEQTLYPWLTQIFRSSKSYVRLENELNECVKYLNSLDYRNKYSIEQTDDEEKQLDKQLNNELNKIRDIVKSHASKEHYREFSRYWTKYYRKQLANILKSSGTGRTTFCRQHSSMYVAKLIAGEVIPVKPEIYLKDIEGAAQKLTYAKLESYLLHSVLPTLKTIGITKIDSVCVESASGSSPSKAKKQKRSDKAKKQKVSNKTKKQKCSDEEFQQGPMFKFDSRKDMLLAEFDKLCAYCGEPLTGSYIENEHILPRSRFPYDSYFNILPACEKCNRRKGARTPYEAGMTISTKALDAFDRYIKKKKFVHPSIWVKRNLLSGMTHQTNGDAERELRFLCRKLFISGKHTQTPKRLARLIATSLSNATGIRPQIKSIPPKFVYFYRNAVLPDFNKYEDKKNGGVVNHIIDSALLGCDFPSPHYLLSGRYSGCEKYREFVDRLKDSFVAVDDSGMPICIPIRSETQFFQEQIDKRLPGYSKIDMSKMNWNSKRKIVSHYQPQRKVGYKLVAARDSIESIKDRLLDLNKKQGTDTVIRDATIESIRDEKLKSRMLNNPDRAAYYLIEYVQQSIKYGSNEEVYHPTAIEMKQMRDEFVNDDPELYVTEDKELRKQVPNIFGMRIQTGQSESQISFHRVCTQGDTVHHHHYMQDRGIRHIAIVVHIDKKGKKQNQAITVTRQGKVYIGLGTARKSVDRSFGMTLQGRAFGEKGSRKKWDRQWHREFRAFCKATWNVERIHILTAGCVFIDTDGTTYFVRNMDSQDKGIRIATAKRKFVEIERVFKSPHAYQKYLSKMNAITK
The experiment in a line: cell_activity; HEK293T; PAM AACC. Conditions: tags: N-term SV40 NLS, XTEN linker + C-term nucleoplasmin NLS. The protocol: HEK293T cells were transfected with plasmids expressing the Nuclease S polypeptides and the gRNAs provided herein following the methods provided in Example 1 above. Gene editing efficiencies were determined by NGS following the methods also provided in Example 1. The NGS results were analyzed also following the methods provided in Example 1 above.
Each Nuclease S variant was cloned as described in Example 6. HEK293T cells were further transfected with a plasmid encoding a Nuclease S variant and a plasmid encoding an RNA guide of Table 11, followed by NGS analysis, as described in Example 5. For each target, indel ratios, referring to the percentage of NGS reads comprising indels, were calculated for the reference Nuclease S (SEQ ID NO: 49) and for each Nuclease S variant. The indel ratios shown in Table 13 were calculated as the average of two bioreplicates, each of which contained two technical replicates.

In a further data set the target is T2, Nuclease H (synthetic construct).
T2 chain: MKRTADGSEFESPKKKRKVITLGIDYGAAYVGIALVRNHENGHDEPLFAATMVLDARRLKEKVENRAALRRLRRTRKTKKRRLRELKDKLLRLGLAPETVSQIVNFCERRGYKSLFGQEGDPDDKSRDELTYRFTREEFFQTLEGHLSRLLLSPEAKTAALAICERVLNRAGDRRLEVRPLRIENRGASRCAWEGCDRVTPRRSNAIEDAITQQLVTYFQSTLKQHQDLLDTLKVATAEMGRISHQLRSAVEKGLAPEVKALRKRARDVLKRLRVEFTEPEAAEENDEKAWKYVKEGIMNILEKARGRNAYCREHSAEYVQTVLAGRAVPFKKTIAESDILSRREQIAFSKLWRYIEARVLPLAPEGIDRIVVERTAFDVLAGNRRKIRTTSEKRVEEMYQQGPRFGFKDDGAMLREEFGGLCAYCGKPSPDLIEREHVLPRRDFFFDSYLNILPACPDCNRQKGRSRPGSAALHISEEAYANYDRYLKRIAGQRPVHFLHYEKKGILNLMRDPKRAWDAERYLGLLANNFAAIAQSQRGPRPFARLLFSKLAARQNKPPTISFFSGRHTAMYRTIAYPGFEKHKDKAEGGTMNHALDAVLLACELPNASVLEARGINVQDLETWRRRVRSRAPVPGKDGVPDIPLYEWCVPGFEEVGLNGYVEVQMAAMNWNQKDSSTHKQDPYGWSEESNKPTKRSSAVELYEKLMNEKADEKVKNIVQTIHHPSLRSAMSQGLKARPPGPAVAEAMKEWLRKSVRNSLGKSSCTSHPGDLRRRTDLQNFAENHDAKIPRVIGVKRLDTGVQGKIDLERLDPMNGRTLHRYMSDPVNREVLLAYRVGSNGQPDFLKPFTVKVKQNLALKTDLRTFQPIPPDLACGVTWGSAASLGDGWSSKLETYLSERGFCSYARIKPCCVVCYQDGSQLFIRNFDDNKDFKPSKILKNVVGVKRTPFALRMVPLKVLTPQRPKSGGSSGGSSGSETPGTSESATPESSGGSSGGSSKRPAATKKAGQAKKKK
Description: cell_activity; HEK293T; PAM AAC 3'; Table 16 SEQ IDs shifted, guide taken from Table 15. Conditions: tags: N-term SV40 NLS, XTEN linker + C-term nucleoplasmin NLS.

B1: S AAVS1-T7 RNA guide ; AAVS1-T7 target (S) (ssRNA ; dsDNA)
RNA: GGCUAUAAUCCAUGCUGACCGUUGUAUUCGGAUGGGAGUAAAAGGUUGAGUACACCUGGAAACAAAACGACAUAAAGGUGUUCUCCCAUCUGUGUACAAAGAGCAGAUAUAUGAGUUGAUAAGUAAUAUGUUGCACGUAUGGACUUUGACAGUCUGUACCUCUGCGUGAAAGACAUAUUGCGUUAUUCAUAUAUCUGUGAGUCUGUUCUAAAUUUAAAGGUUUAGGGAA
DNA 1: GGCTATAATCCATGCTGACC
DNA 2: GGTCAGCATGGATTATAGCC
For B1, in data set [1], the activity stood at 0.333 indel ratio.

B2: H AAVS1-T5 RNA guide ; AAVS1-T5 target (H) (ssRNA ; dsDNA)
RNA: GGCUAUAAUCCAUGCUGACCGUUUCAAUCAACCUGAUCUCUCUGCUUGCGCUGCAGGCUUCAUAAGAUCAGUAGGUUGAAAAGAGCAUCCGUCCGACAUGCACUCCGGGAUGGGGCAGUCCCGGCUCUUGCGGUUCCCGAUGCAGUUAUGUGUCCGCGGAACACGGUGUCGGACACGUCGCAAGACAGGAUGUGAGCCCAUUAUCCACAUUAGGAUCAAUGUACGCAUGAGCAGUCCGCAAUGCCGGGGACGCU
DNA 1: GGCTATAATCCATGCTGACC
DNA 2: GGTCAGCATGGATTATAGCC
Turning to B2, the activity with Nuclease H is 0.0105 indel ratio.
